From the supplement of paper PMC11246515
± gives the standard deviation of the averaged measurements.

Experiment: total protein half-life in vivo (active degradation + dilution); higher = more stable protein
[1] = E. coli NCM3722 delta-clpP delta-lon delta-hslV, growth: N-lim chemostat, doubling time 6 h
[2] = E. coli NCM3722 delta-clpP, growth: N-lim chemostat, doubling time 6 h
[3] = E. coli NCM3722 delta-hslV, growth: N-lim chemostat, doubling time 6 h
[4] = E. coli NCM3722 delta-lon, growth: N-lim chemostat, doubling time 6 h
[5] = E. coli NCM3722 delta-smpB, growth: N-lim chemostat, doubling time 6 h
[6] = wild type E. coli NCM3722, growth: C-lim chemostat, doubling time 3 h
[7] = wild type E. coli NCM3722, growth: C-lim chemostat, doubling time 6 h
[8] = wild type E. coli NCM3722, growth: C-lim chemostat, doubling time 12 h
[9] = wild type E. coli NCM3722, growth: N-lim chemostat, doubling time 6 h
[10] = wild type E. coli NCM3722, growth: N-lim chemostat, doubling time 12 h
[11] = wild type E. coli NCM3722, growth: P-lim chemostat, doubling time 6 h
[12] = wild type E. coli NCM3722, growth: P-lim chemostat, doubling time 12 h

Sequence | total protein half-life in vivo [1] [h] | total protein half-life in vivo [2] [h] | total protein half-life in vivo [3] [h] | total protein half-life in vivo [4] [h] | total protein half-life in vivo [5] [h] | total protein half-life in vivo [6] [h] | total protein half-life in vivo [7] [h] | total protein half-life in vivo [8] [h] | total protein half-life in vivo [9] [h] | total protein half-life in vivo [10] [h] | total protein half-life in vivo [11] [h] | total protein half-life in vivo [12] [h]
MLHTLHRSPWLTDFAALLRLLSEGDELLLLQDGVTAAVDGNRYLESLRNAPIKVYALNEDLIARGLTGQISNDIILIDYTDFVRLTVKHPSQMAW | 5.27 ± 0.29 | 5.7 | 4.53 ± 0.13 | 6.44 ± 1.6 | 4.89 ± 0.16 | 3.012 ± 0.0044 | 5.1 | 13.4 ± 3 | 4.39 ± 0.46 | 8.26 | 5.89 | 11.3 ± 0.18
MTEIQRLLTETIESLNTREKRDNKPRFSISFIRKHPGLFIGMYVAFFATLAVMLQSETLSGSVWLLVVLFILLNGFFFFDVYPRYRYEDIDVLDFRVCYNGEWYNTRFVPAALVEAILNSPRVADVHKEQLQKMIVRKGELSFYDIFTLARAESTS [P0AAS0] | – | – | – | – | – | 0.508 ± 0.022 | 0.836 | – | 2.01 | – | 0.489 | 0.554
MVDTTQTTTEKKLTQSDIRGVFLRSNLFQGSWNFERMQALGFCFSMVPAIRRLYPENNEARKQAIRRHLEFFNTQPFVAAPILGVTLALEEQRANGAEIDDGAINGIKVGLMGPLAGVGDPIFWGTVRPVFAALGAGIAMSGSLLGPLLFFILFNLVRLATRYYGVAYGYSKGIDIVKDMGGGFLQKLTEGASILGLFVMGALVNKWTHVNIPLVVSRITDQTGKEHVTTVQTILDQLMPGLVPLLLTFACMWLLRKKVNPLWIIVGFFVIGIAGYACGLLGL | 6.27 ± 0.37 | 6.2 ± 0.14 | 5.93 ± 0.077 | 6.13 ± 0.11 | 6.28 ± 0.28 | 3.168 ± 0.014 | 6.21 ± 0.26 | 13.8 ± 2.9 | 6.51 ± 0.75 | 12.8 ± 1.1 | 6.24 ± 0.064 | 13.56 ± 0.072
MAYQSQDIIRRSATNGLTPAPQARDFQEEVAKLIDVTTCIGCKACQVACSEWNDIRDTVGNNIGVYDNPNDLSAKSWTVMRFSEVEQNDKLEWLIRKDGCMHCSDPGCLKACPAEGAIIQYANGIVDFQSEQCIGCGYCIAGCPFDIPRLNPEDNRVYKCTLCVDRVVVGQEPACVKTCPTGAIHFGTKESMKTLASERVAELKTRGYDNAGLYDPAGVGGTHVMYVLHHADKPNLYHGLPENPEISETVKFWKGIWKPLAAVGFAATFAASIFHYVGVGPNRADEEENNLHEEKDEERK [P0AAJ5] | 4.44 ± 0.47 | – | 3.37 | – | 3.15 | – | 6.15 | 7.88 | 5.98 ± 0.62 | – | 5.29 | –
MRISLKKSGMLKLGLSLVAMTVAASVQAKTLVYCSEGSPEGFNPQLFTSGTTYDASSVPLYNRLVEFKIGTTEVIPGLAEKWEVSEDGKTYTFHLRKGVKWHDNKEFKPTRELNADDVVFSFDRQKNAQNPYHKVSGGSYEYFEGMGLPELISEVKKVDDNTVQFVLTRPEAPFLADLAMDFASILSKEYADAMMKAGTPEKLDLNPIGTGPFQLQQYQKDSRIRYKAFDGYWGTKPQIDTLVFSITPDASVRYAKLQKNECQVMPYPNPADIARMKQDKSINLMEMPGLNVGYLSYNVQKKPLDDVKVRQALTYAVNKDAIIKAVYQGAGVSAKNLIPPTMWGYNDDVQDYTYDPEKAKALLKEAGLEKGFSIDLWAMPVQRPYNPNARRMAEMIQADWAKVGVQAKIVTYEWGEYLKRAKDGEHQTVMMGWTGDNGDPDNFFATLFSCAASEQGSNYSKWCYKPFEDLIQPARATDDHNKRVELYKQAQVVMHDQAPALIIAHSTVFEPVRKEVKGYVVDPLGKHHFENVSIE | 6.22 ± 0.29 | 6.39 ± 1.1 | 6.489 ± 0.018 | 6.6 ± 0.13 | 5.83 ± 0.096 | 3.33 ± 0.069 | 6.97 ± 1.4 | 14.3 ± 1.9 | 6.058 ± 0.029 | 12.9 ± 0.92 | 6.06 ± 0.45 | 13.1 ± 0.31
MEKTTTQELLAQAEKICAQRNVRLTPQRLEVLRLMSLQDGAISAYDLLDLLREAEPQAKPPTVYRALDFLLEQGFVHKVESTNSYVLCHLFDQPTHTSAMFICDRCGAVKEECAEGVEDIMHTLAAKMGFALRHNVIEAHGLCAACVEVEACRHPEQCQHDHSVQVKKKPR [P0AC51] | 5.27 ± 0.88 | 5.4504 ± 0.0027 | 5.09 | 5.63 ± 0.19 | 4.2 ± 0.9 | – | 3.79 | 9 ± 1.9 | 5.15 | 6.28 | 3.86 ± 0.18 | 8.62 ± 0.42
MSKLIVPQWPQPKGVAACSSTRIGGVSLPPYDSLNLGAHCGDNPDHVEENRKRLFAAGNLPSKPVWLEQVHGKDVLKLTGEPYASKRADASYSNTPGTVCAVMTADCLPVLFCNRAGTEVAAAHAGWRGLCAGVLEETVSCFADNPENILAWLGPAIGPRAFEVGGEVREAFMAVDAKASAAFIQHGDKYLADIYQLARQRLANVGVEQIFGGDRCTYTENETFFSYRRDKTTGRMASFIWLI | 5.05 ± 0.14 | 4.77 ± 0.76 | 4.885 ± 0.007 | 5.03 ± 0.24 | 4.05 ± 1 | 3.198 ± 0.027 | 5.11 ± 0.72 | 8.61 ± 0.21 | 5.03 ± 0.22 | 9.17 ± 0.77 | 5.644 ± 0.043 | 11.9 ± 0.43
